Values of other authors as cited in patent publication US20240209047A1, “GROWTH FACTOR CONJUGATES” (priority 2021, published 2024).

Test system: non-healing diabetic ulcers
Details: treated for 20 weeks or until complete wound closure; placebo 25%

B1: PDGF: topical gel containing recombinant human PDGF-BB (Regranex®) (protein, UniProt P01127 82-190, looked up)
Platelet-derived growth …: SLGSLTIAEPAMIAECKTRTEVFEISRRLIDRTNANFLVWPPCVEVQRCSGCCNNRNVQCRPTQVQLRPVQVRKIEIVRKKPIFKKATVTLEDHLACKCETVAAARPVT
modifications: Platelet-derived growth factor subunit B topical gel (becaplermin)
Q: With B1 as the molecule, how does the patients healed read?
A: 48%
